Assay results published in patent publication US20260034234A1 (AGENSYS, published 2026).

How the values were obtained:
[1] = molecular target: T1, 191P4D12 (aa 1-31, 147-510), C1C2, Rat1(E) expressing line (human, UniProt Q96NY8 1-510); test: FACS on Rat1(E) cells expressing the C1C2 construct [Continued]
T1 construct: Deletion construct on the surface of Rat1(E) cells; also called C1C2 domain expressing cells
T1 sequence: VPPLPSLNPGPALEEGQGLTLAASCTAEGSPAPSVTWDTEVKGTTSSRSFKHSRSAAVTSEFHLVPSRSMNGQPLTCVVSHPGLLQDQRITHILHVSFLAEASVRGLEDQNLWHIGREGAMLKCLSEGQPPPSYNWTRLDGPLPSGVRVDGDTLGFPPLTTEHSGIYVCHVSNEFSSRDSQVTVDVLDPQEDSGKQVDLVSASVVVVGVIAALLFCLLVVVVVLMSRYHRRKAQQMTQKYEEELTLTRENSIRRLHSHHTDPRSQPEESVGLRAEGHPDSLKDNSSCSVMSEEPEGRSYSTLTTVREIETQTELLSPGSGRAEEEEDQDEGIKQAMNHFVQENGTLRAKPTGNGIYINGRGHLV

[2] = molecular target: T2, Rat 191P4D12 (on PC3 cells) (rat, UniProt D3ZET1 31-509); test: FACS titration on PC3 cells expressing the rat ortholog
T2 construct: whole, on cells; also called PC3-rat-191P4D12; Rat ortholog
T2 sequence: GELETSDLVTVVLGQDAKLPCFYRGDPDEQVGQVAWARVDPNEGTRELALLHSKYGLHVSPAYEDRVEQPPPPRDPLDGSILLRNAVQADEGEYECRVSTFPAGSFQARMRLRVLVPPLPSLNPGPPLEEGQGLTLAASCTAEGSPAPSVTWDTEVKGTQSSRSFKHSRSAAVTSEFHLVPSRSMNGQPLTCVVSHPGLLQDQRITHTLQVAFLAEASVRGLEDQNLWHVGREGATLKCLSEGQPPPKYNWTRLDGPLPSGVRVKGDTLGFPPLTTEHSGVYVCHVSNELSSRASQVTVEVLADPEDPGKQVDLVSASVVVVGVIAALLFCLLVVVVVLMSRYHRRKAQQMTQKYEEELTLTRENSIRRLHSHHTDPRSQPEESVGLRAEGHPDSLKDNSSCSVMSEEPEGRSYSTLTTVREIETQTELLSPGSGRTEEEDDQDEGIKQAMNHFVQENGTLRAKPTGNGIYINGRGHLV

- binding result [1]: no binding
- EC50 (read off the curve) [2]: ~0.3 nM
B1: Ha22-2(2,4)6.1 MAb (antibody, human IgG1, kappa, V domains shown)
VH: EVQLVESGGGLVQPGGSLRLSCAASGFTFSSYNMNWVRQAPGKGLEWVSYISSSSSTIYYADSVKGRFTISRDNAKNSLSLQMNSLRDEDTAVYYCARAYYYGMDVWGQGTTVTVSS
VL: DIQMTQSPSSVSASVGDRVTITCRASQGISGWLAWYQQKPGKAPKFLIYAASTLQSGVPSRFSGSGSGTDFTLTISSLQPEDFATYYCQQANSFPPTFGGGTKVEIKR
notes: Fully human IgG1 kappa from XenoMouse; Used biotinylated in the Western blot; also called 191P4D12 MAb Ha22-2(2,4)6.1; Ha22-(2,4)6.1 MAb
